For one molecule, Kd results are on record in publication PMC4450770 (2016).

The assay concerns the target tetraubiquitin chain (Homo sapiens, UniProt P0CG48, tetraubiquitin chain, N-terminal Dylight550-labeled ubiquitin). Nature of the assay: single-molecule TIRF dwell time.

B1: 26S proteasome (protein)
chain 1: MVLESTMVCVDNSEYMRNGDFLPTRLQAQQDAVNIVCHSKTRSNPENNVGLITLANDCEVLTTLTPDTGRILSKLHTVQPKGKITFCTGIRVAHLALKHRQGKNHKMRIIAFVGSPVEDNEKDLVKLAKRLKKEKVNVDIINFGEEEVNTEKLTAFVNTLNGKDGTGSHLVTVPPGPSLADALISSPILAGEGGAMLGLGASDFEFGVDPSADPELALALRVSMEEQRQRQEEEARRAAAASAAEAGIATTGTEDSDDALLKMTISQQEFGRTGLPDLSSMTEEEQIAYAMQMSLQGAEFGQAESADIDASSAMDTSEPAKEEDDYDVMQDPEFLQSVLENLPGVDPNNEAIRNAMGSLASQATKDGKKDKKEEDKK
chain 2: TTSGALFPSLVPGSRGASNKYLVEFRAGKMSLKGTTVTPDKRKGLVYIQQTDDSLIHFCWKDRTSGNVEDDLIIFPDDCEFKRVPQCPSGRVYVLKFKAGSKRLFFWMQEPKTDQDEEHCRKVNEYLNNPPMPGALGASGSSGHELSALGGEGGLQSLLGNMSHSQLMQLIGPAGLGGLGGLGALTGPGLASLLGSSGPPGSSSSSSSRSQSAAVTPSSTTSSTRATPAPSAPAAASATSPSPAPSSGNGASTAASPTQPIQLSDLQSILATMNVPAGPAGGQQVDLASVLTPEIMAPILANADVQERLLPYLPSGESLPQTADEIQNTLTSPQFQQALGMFSAALASGQLGPLMCQFGLPAEAVEAANKGDVEAFAKAMQNNAKPEQKEGDTKDKKDEEEDMSLD
Consider B1, for which the Kd came out at 210 nM. In other words, the sub-micromolar range.

The term Kd denotes the free concentration of one partner at which half of the binding sites on the other are occupied at equilibrium, for simple one-to-one binding. Higher therefore signals weaker binding.
